# Publication PMC5515580
# Positions count from the first letter of the chain named. Names and notes keep the numbering of the source.
# B1: P-S88-ARPP-16 (natural protein)
# chain: MEDKVTSPEKAEEAKLKARYPHLGQKPGGSDFLRKRLQKGQKYFDSGDYNMAKAKMKNKQLPTAAPDKTEVTGDHIPTPQDLPQRKPSLVASKLAG
# modifications: phosphoserine at 88 (by PKA, to a maximal stoichiometry)
# B2: 6xHis-S88D-ARPP-16 (natural protein)
# chain: B1 chain with S88D
# Target: MAST3-HA (human) (UniProt O60307)
# Sequence (O60307 313-1021): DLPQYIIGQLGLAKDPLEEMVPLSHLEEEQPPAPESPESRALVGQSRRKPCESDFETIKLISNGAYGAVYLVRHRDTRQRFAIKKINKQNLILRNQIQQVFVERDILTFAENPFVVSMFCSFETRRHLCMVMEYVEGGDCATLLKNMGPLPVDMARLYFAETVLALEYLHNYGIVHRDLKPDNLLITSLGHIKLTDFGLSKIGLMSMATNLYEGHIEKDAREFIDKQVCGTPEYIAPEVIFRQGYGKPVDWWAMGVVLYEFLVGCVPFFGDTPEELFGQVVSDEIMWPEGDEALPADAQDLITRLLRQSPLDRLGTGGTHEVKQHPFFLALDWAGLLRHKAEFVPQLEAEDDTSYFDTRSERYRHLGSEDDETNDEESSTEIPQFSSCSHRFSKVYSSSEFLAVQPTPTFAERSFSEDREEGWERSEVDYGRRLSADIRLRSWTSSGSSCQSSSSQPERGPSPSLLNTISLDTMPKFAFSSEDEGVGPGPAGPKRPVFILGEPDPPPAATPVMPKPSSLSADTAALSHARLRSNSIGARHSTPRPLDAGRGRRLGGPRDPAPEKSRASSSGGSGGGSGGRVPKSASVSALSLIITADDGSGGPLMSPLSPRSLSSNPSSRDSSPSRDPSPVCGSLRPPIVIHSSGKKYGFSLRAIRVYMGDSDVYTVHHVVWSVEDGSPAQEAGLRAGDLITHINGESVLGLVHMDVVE
Binder,"Km of phosphorylation of Ser46 by immunoprecipitated MAST3 (32P incorporation, 10-500 nM substrate, 2 min; Figure 1b) [nM]","Km of phosphorylation of Ser46 by immunoprecipitated MAST3 (32P incorporation, 10-500 nM substrate, 2 min; Figure 1—figure supplement 1) [nM]"
B1,158,–
B2,–,138
